# Patent US20150175693A1 (UNIVERSIT TSKLINIKUM REGENSBURG, published 2015)
# B1: biotinylated hIL-3 (R&D Systems, Cat. No. NF300) (ligand)
# chain: APMTQTTPLKTSWVNCSNMIDEIITHLKQPPLPLLDFNNLNGEDQDILMENNLRRPNLEAFNRAVKSLQNASAIESILKNLLPCLPLATAAPTRHPIHIKDGDWNEFRRKLTFYLKTLENAQAQQTTLSLAIF
# modifications: biotinylated (sites not given)
# notes: Bought reagent; also called biotinylated IL-3
# Target: T1, IL-3 receptors on human basophils, pDC, monocytes and B cells (PBMC) (human, UniProt P26951 19-378; P32927 17-897)
# T1 construct: whole, on cells; Natural receptor on primary human blood cells; the cells were sorted by CD123 and HLA-DR staining; also called CD123
# Assay: flow cytometry, biotinylated hIL-3 on human PBMC, avidin-FITC
# Method: Binding of IL-3 to human peripheral blood mononuclear cells (PBMC) was analysed using commerically available biotinylated IL-3. For the assay, biotinylated IL-3 was incubated with PBMC and binding detected via Avidin-Fluorescein (biotinylated hIL-3 and other reagents obtained from R&D Systems, Inc., Cat. No. NF300).
# 10 μl of the isolated and incubated PBMC cell preparation (10 Mio. cells/ml) were added to each of the preincubated IL-3/antibody or negative control samples and further incubated for 1 hour at 4° C. For the detection of IL-3 bound to PBMC, 10 μl avidin-FITC reagent together with anti-human CD123 PE-Cy5 (1:10) and anti-HLA-DR II APC (1:50) were added and the samples incubated for a further 30 min at 4° C. Cells were washed twice with 2 ml 1×RDF1 buffer and resuspended in 200 μl of this buffer per sample and FACS analysis performed. Basophils were identified by high expression of CD123 and absence of HLA-DR. Plasmacytoid dendritic cells (pDC) were identified by high expression of CD123 and HLA-DR. Monocytes and B cells were identified by light scatter properties and expression of HLA-DR.
# T1 sequence (P26951 19-378, chain 1 of 2): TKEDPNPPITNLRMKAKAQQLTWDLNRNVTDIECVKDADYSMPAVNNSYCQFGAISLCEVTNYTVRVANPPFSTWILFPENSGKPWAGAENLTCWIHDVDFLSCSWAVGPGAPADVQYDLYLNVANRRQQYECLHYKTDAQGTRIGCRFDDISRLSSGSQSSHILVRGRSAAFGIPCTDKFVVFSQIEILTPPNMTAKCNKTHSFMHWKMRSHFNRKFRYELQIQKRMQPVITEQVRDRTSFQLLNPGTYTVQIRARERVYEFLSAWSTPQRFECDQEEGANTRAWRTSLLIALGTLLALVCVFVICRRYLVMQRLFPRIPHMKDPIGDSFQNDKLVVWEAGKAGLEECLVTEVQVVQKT
# T1 sequence (P32927 17-897, chain 2 of 2): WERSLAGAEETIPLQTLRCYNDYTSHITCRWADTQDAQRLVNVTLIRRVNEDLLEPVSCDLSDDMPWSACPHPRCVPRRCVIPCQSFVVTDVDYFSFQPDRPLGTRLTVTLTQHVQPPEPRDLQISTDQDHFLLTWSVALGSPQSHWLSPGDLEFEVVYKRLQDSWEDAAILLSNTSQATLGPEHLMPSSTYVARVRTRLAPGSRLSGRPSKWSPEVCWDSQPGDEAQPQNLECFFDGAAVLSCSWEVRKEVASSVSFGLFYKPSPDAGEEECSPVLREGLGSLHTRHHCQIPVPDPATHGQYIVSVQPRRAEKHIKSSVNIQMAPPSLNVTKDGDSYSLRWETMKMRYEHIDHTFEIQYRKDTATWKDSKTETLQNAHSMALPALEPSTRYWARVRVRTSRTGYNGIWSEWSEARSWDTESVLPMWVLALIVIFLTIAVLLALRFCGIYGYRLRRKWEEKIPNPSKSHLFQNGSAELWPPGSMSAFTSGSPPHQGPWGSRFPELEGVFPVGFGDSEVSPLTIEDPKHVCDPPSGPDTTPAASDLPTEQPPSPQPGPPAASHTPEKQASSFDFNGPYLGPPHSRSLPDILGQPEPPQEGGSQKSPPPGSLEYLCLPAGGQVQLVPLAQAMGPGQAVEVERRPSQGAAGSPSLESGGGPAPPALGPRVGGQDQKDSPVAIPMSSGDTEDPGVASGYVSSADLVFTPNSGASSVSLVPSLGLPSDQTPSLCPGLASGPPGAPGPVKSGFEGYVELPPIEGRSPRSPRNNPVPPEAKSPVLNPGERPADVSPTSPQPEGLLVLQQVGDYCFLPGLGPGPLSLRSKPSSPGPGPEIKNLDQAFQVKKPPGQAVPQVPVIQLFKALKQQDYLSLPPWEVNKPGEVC
binder,measurement,value
B1,binding result,binds
